Common to all, as to details: both partners purified
The target in assay [1] is T1, Radixin FERM domain (human, UniProt P35241 5-295).
T1 construct: also called RDX
T1 sequence (P35241 5-295): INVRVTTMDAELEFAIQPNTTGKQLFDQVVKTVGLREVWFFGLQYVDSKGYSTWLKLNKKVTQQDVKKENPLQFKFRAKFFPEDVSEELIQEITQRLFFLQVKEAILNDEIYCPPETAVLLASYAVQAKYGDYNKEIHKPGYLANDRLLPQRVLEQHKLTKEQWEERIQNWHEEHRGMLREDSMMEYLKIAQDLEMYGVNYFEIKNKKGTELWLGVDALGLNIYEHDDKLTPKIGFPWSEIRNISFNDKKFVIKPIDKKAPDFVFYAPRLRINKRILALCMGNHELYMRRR

Another assay concerns the target G3BP1 NTF2 domain (human, UniProt Q13283 11-133).
The target of another assay is T2, G3BP2 NTF2 domain (human, UniProt Q9UN86 11-133).
T2 sequence (looked up): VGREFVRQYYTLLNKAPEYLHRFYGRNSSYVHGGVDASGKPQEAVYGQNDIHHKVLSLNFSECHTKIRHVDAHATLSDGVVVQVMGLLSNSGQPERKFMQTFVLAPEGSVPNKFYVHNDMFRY

The target of assay [2] is G3BP1 NTF2 domain, His-GST-tagged (human, UniProt Q13283 11-133).
Chain of G3BP1 NTF2 domain, His-GST-tagged (Q13283 11-133): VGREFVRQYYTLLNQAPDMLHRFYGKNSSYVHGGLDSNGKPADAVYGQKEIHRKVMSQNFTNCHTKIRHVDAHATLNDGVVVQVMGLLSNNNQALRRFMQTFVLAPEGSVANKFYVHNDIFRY
Assay [3] concerns the target T3, G3BP2 NTF2 domain, His-GST-tagged (human, UniProt Q9UN86 11-133).
T3 sequence (looked up): T2 sequence (looked up)

Another assay addresses USP7 MATH domain (human, UniProt Q93009 68-195).
The target of assay [4] is T4, Ezrin FERM domain (human, UniProt P15311 2-296).
T4 construct: also called EZR FERM
T4 sequence (P15311 2-296): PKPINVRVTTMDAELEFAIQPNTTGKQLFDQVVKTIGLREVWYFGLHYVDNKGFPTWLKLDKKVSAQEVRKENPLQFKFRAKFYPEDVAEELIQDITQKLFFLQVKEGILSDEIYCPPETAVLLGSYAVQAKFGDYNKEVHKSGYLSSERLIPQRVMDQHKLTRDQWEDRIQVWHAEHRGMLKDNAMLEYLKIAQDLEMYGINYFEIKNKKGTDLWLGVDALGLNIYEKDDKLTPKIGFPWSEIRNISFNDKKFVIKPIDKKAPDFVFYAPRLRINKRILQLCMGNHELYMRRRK

Assay [5] concerns the target T5, Radixin FERM domain (human, UniProt P35241 5-295).
T5 construct: also called RDX; RDX FERM
T5 sequence (P35241 5-295): as the sequence (P35241 5-295) above

For assay [6], the target named is Ezrin FERM domain (human, UniProt P15311 2-296).
Target sequence in this assay (P15311 2-296): as the sequence (P15311 2-296) above

Like-named read-outs stand apart in the source and are kept apart here. Ends that are not written are not given here. * marks the point of attachment. FITC = O=C1OC2(c3ccc(O)cc3Oc3cc(O)ccc32)c2ccc(NC(=S)*)cc21

The values below come from article PMC8605023 (Nature Communications, 2021).

Chain of G3BP1 NTF2 domain (Q13283 11-133): as the sequence (Q13283 11-133) above
Chain of USP7 MATH domain (Q93009 68-195): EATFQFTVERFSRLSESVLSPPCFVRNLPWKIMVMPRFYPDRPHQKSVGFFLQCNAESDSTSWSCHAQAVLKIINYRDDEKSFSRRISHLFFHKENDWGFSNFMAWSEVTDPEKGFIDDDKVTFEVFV

Take {FITC}-YYSVNTFKEHHSTPTI [FITC-Kirrel3 peptide 668-683]: binding in the assay with Radixin FERM domain [1] was characterised by a dissociation constant (Kd) of 0.485 µM.

APRITFGGPTDSTDNY [N peptide 13-27 (Sars-CoV)] showed a concentration for half-maximal inhibition (IC50) in the assay with G3BP1 NTF2 domain of 10 µM.

Consider PSKLPTFGAPEQLVDY [TRIM25 peptide 400-414], for which the IC50 stood at 120 µM with G3BP1 NTF2 domain and 53 µM with G3BP2 NTF2 domain. Moreover, the Ki with G3BP1 NTF2 domain turned out to be 46 µM; with G3BP2 NTF2 domain, 17 µM.

In the case of NLQFGALQFGSEPVY [UBAP2L peptide 515-528], 104 µM corresponded to half-maximal inhibition in the assay with G3BP1 NTF2 domain (IC50). In the assay with G3BP2 NTF2 domain, this molecule displayed an IC50 of 79 µM and a Ki of 32 µM.

For {FITC}-APRITFGGPSDS [N FITC-APRITFGGPSDS], the values for the dissociation constant Kd in [2] and in assay [3] were 3.2 ± 0.1 µM and 2.1 ± 0.1 µM, respectively.

On to QGLPLEFGASAETVRY [NSP3 peptide 958-972 (Sars-CoV)], for which the 50% inhibitory concentration (IC50) was 320 µM with G3BP1 NTF2 domain and 130 µM with G3BP2 NTF2 domain. Moreover, the Ki in the assay with G3BP1 NTF2 domain was determined as 119 µM; in the assay with G3BP2 NTF2 domain it was 47 µM.

Molecule {FITC}-DYSQPSTSSSIIY (also called MDM2 probe peptide) [MDM2 FITC-DYSQPSTSSSIIY] had a Kd in the assay with USP7 MATH domain of 0.49 ± 0.06 µM.

For {FITC}-YYSVNTFKEHHSTPTI (also called Kirrel probe peptide) [Kirrel FITC-YYSVNTFKEHHSTPTI], the values for the Kd with Ezrin FERM domain [4] and in the assay with Radixin FERM domain [5] were 1.4 ± 0.1 µM and 0.485 ± 0.003 µM, respectively.

With APRAVTFGDNNDNNTY [N peptide 6-20 (Mers1)], the IC50 stood at 130 µM with G3BP1 NTF2 domain and 80 µM with G3BP2 NTF2 domain. For the same molecule, in the assay with G3BP1 NTF2 domain, the Ki turned out to be 51 µM.

For the molecule ESLPFSFGTLSSWELE [DDIT3 peptide 4-19], in the assay with G3BP2 NTF2 domain, the IC50 worked out at 30 µM and the Ki worked out at 12 µM.

On to VDTSNSFEVLAVEDTQY [NSP3 peptide 1996-2011 (Sars-CoV)], for which, in the assay with Ezrin FERM domain [6], the IC50 turned out to be 200 µM and the inhibition constant (Ki) worked out at 218 µM. Further, in the assay with Radixin FERM domain [1], the IC50 is 200 µM and the Ki stood at 56.2 µM.

AQMQGPYNFIQDSMLD [CAPRIN1 peptide 364-379] came in with a half-maximal inhibitory concentration (IC50) with G3BP2 NTF2 domain of 29 µM.

For PVPPIEFGVSPKDSDY [PRRC2B peptide 1780-1794], in the assay with G3BP2 NTF2 domain, the IC50 stood at 53 µM and the inhibition constant Ki was 19 µM.
